Laboratory results reported in the supplement of paper PMC9170038.

System: K4 kissing-loop RNA reporter
Assay: apparent KD of K4 kissing-loop reporter; higher = weaker reporter binding
Conditions: Eterna round: R107
Method: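 RNA-MaP round R107: designed RNA switches with theophylline, tryptophan, arginine or FMN aptamers are transcribed on-chip within common flanks. They are titrated with a labelled K4 kissing-loop RNA reporter in RNA-MaP buffer (100 mM Tris pH 7.5, 80 mM KCl, 4 mM MgCl2), without ligand or with the indicated ligand. Median apparent KD per design.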

[1] = input ligand: theophylline 20 uM
[2] = input ligand: tryptophan 2.4 mM
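Also: bound reporter read as fluorescence of individual clusters on recovered sequencing chips by microscopy, with normalized cluster intensities fitted with a binding model.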

Sequence	apparent KD of K4 kissing-loop reporter (input ligand: FMN 200 uM)	apparent KD of K4 kissing-loop reporter (input ligand: arginine 13.2 mM)	apparent KD of K4 kissing-loop reporter (input ligand: none)	apparent KD of K4 kissing-loop reporter [1]	apparent KD of K4 kissing-loop reporter [2]
AGUGAUGUGGGAAGGAGCGCUACAAGACUUCAGUGAUGUUGAAGUGAUGAUUUAGUGUUGUAGCAGGUAGGUCGCCUAGAUGUUA [KL-XARG-B9]	60.9 nM	27 nM	44.9 nM	36.2 nM	39.1 nM
AGUGAUGUGGGAAGGAGCGGUACAUGACUUCAGUGAUGUUGAAGUGAUGAUUUAGUGAUGUGCCAGGUAGGUCGCCUAGAUGUUA [KL-XARG-B7]	79.8 nM	36.7 nM	68.1 nM	41.8 nM	51 nM
AGUGCACUGUCAGGAUAUAUACAGUGAUGUUGUGUAUGUCAGCAAGUCAAAGACUUGCUGUUCUGUGUAGAAGGGACUGUGUACA [Omei KL FMN B Exc A v3]	911 nM	457 nM	450 nM	467 nM	426 nM
AGUGCCUGCCUUAGCCUUCCCAUCAACUUCCGAGGACCGGUACGGCCGCCACUCGGCCAUCGGGCUAGUGAUGUUACCUGGUGGA [theeternabot_sameState_KL_Trp_A_50]	337 nM	302 nM	327 nM	320 nM	224 nM
AGUGUUAGGUUAGAUACCAGCCGUUCGUGAAUAAUCCUCGAACCGCCAGUGAUGUUGGCAGGCCCUUGGCAGCUAACAGAACAGA [Maxeusla]	243 nM	216 nM	207 nM	170 nM	223 nM
AGUUCCUCUGUCGAUACCAGCUUCAGUUGGCGGCCAGUGAUGUUGGUAUCGCCGAUGCCAAGCCCUUGGCAGCGACAUGAGACCC [Lausso]	188 nM	187 nM	169 nM	111 nM	197 nM
AUAAACUUGCAGUGAUGUUGCAAGUGAGACUAGGAUAUCAGGAAGCUGAGAAGGAGUCAUCUCCUUCAGACAUCACUAUGAAGGA [whbob_SS_FMNA__2th179]	334 nM	191 nM	251 nM	205 nM	232 nM
AUAGAGAAGUGGCACCCUCACUAAAACAGUCGAGGACCGGUACGGCCGCCACUCGCGCGCUUUAGUGAUGUUAAAGAUGUGAAAA	223 nM	209 nM	223 nM	508 nM	215 nM
AUCUAGAUGCGAAGGAGCGCCUCAACGCGCUAUCUAUGGAGUGAUGUUCCAACGUAUGAGAGGCAGGUAGGUCGCGCAUCUAGAA [Arg B Ex t1]	129 nM	113 nM	132 nM	117 nM	115 nM
AUGCGCGUGCGAUGUAAAUCGCACGCGCAUCGAGGACCGGUACGGCCGCCACUCGCUCGCGCCGAGUGAUGUUCGGCCGGCGAAC [#2 Same State - Tryptophan A Attempt #5 (HarryS)]	442 nM	278 nM	527 nM	454 nM	476 nM
AUGGUGGAUCAGUGAUGUUGGUGGAGUACGUAGGAUAUGAGUGAUGUUAGAAGGAUGGGAGUGAUGUUCCAGGUGGUUGUGUUGU [KL-SSFMN-A1]	557 nM	364 nM	652 nM	507 nM	492 nM
AUUAACCUUUUAGCUAUAUUUUUAUGUGAUACCAGACAUGGCAUAGUCCCUUGGCAGCACAUUAUAUUUACGAGUGAUGUUCGAA [JR_SSTheophyA_Sub026]	243 nM	250 nM	261 nM	271 nM	194 nM
AUUAAUUUCAGAGGAUAUCGUUAUUUUUUAUAUUUUAUUCAUUUAUGCAGUGAUGUUGCUAUUAAUCGAGAAGGCUGAUUUAUAA [JR_ExcFMNB_Sub003]	85.5 nM	114 nM	47.1 nM	120 nM	49.4 nM
AUUAGGCGAAGUGAUGUUUCAUAUAAUGGCAAGGAUAUGUCCUUACACAGAAGGUGCUCUUAGUCAGGUUAUAUUAGGACUGCUA [theeternabot_exclusion_KL_FMN_A_42]	446 nM	434 nM	460 nM	474 nM	340 nM
AUUAUAAAGGCGGCCGCCACUAGUGAUGUUAGUGACUUAUGUAUUAUCAUAAGAAUAAAAUAAAAUAGGACCGGGCCAAAAUAUU [AstrosExTryB#3]	527 nM	384 nM	452 nM	448 nM	483 nM
AUUCAUGAGUGAUGUUCAUCGGCAGGAGAUACCAGCGAGUUAACCCGCCCUUGGCAGCUCAAGUAUAGGGACUCUGGCAUCGCCU [theeternabot_exclusion_KL_Theo_A_18]	406 nM	374 nM	547 nM	405 nM	369 nM
AUUCAUUUCAGAGGAUAUCGCUGGAGAGUGAUGUUCUCCCAUAGUCAGUGAUGUUGGCUAGCUAUGCGAGAAGGCUGUGGGUGGA [Same State FMN B GF 28]	143 nM	396 nM	397 nM	356 nM	384 nM
AUUCGAUCAGUGAUGUUGAUCAAAGUCGAAGGAGCGGACGAAAGUCCAGGUAGGUCGCGACUACAAGGUGUUAAGACACCUCGAA [Spvincent t9 mod #OpenEnded]	246 nM	211 nM	237 nM	208 nM	224 nM
AUUCUAUUGUGAAGGAGCGCGUAUAGUAGUGAUGUUACUAUAAUGAUAGAUACUUAAUUCUCGCAGGUAGGUCGCACAAUAUAUA [JR_Nu_ExcArginiB_Sub024]	117 nM	77.5 nM	98.8 nM	85 nM	89.8 nM
AUUUAGACGAGUGAUGUUCGUGUUAUUACAGAGGAUAUGCGUGAUUGCAGAAGGCUGUAUUUAUAUAUGUUAUGUGGUUUUAAAA [whbob_Ex_FMNA__2th186]	79.7 nM	102 nM	90.7 nM	102 nM	69.9 nM
CAGUUCUAUUCCGGUAGUGAUGUUACCAAGCGAGGACCGGUACGGCCGCCACUCGAGUGACAGACGUACUGGUAUCACCCGCUUC	159 nM	172 nM	164 nM	186 nM	142 nM
CAUACGCAUGGAGGAUAUGAGAUUACUCAUAUCAUUUAAUAUUCUCAGUGAUGUUGAGAUUUAAACUCAGAAGGCCAUGUGUAUG [Ex FMN B 12]	262 nM	331 nM	358 nM	356 nM	380 nM
